B1: Ab 31 scFv-Fc (scFv, V domains shown)
VH: QVQLVQSGAEVKKPGSSVKVSCKASGGTFSSYTISWVRQAPGQGLEWMGGIIPILGTPNYAQKFQDRVAITADKSTSTAYMELSSLRSEDTAVYYCAVGSGWYSGFDYWGQGTLVTVSS
VL: NFMLTQPHSVSESPGKTVTISCTGSSGSIASNYVQWYQQRPGSAPTTVIYEDSQRPSGVPDRFSGSIDSSSNSASLTISGLKTEDEADYYCQSFHNSNPVIFGGGTKLTVL
B2: Ab 38 scFv-Fc (scFv, V domains shown)
VH: QVTLKESGPTLVKPTQTLTLTCTFSGFSLTTSGVSVGWIRQPPGKALEWLALIHWDDDKRYSPSLRSRLTITRDTSKNQVVLTVTDMDPADTGTYYCASFIMTVYAEYFEDWGQGTLVTVSS
VL: EIVLTQSPATLSVSPGERATLSCRASQSVSSNLAWYQQKPGQAPRLLMYDVSTRATGIPARFSGSGSGTEFSLTISSLQSEDFAVYYCQQRGAWPLTFGGGTKVEIK

Assays:
[1] = target: B.1.351 Spike (SARS-CoV-2 spike protein, South African variant B.1.351) (SARS-CoV-2)
[2] = target: B.1.1.7 Spike (SARS-CoV-2 spike protein, UK variant B.1.1.7) (SARS-CoV-2)
[3] = target: P.1 Spike (SARS-CoV-2 spike protein, Brazilian variant P.1) (SARS-CoV-2)
[4] = target: D614G Spike (SARS-CoV-2 spike protein, D614G) (SARS-CoV-2)

Row | Binder | Kd [1] [pM] | Response [1] | Kd [2] [pM] | Response [2] | Kd [3] [pM] | Response [3] | Kd [4] [pM] | Response [4]
1 | B1 | < 1 | 0.09 | < 1 | 0.135 | 8.97 | 0.0789 | – | –
2 | B2 | 7.62 | 0.234 | 1.47 | 0.267 | 7.23 | 0.228 | 3.37 | 0.328
